Experimental data reported in patent US20260250318A1, “COMPOSITIONS AND METHODS FOR CROSSING THE BLOOD BRAIN BARRIER” (VOYAGER THERAPEUTICS, INC., priority 2022, published 2026).

Experiments:
[1] = target: T1, murine ALPL ortholog expressed on HEK 293T cells (NM_001287172.1) (mouse, UniProt P09242 18-501); assay: cell-based or functional assay
T1 sequence: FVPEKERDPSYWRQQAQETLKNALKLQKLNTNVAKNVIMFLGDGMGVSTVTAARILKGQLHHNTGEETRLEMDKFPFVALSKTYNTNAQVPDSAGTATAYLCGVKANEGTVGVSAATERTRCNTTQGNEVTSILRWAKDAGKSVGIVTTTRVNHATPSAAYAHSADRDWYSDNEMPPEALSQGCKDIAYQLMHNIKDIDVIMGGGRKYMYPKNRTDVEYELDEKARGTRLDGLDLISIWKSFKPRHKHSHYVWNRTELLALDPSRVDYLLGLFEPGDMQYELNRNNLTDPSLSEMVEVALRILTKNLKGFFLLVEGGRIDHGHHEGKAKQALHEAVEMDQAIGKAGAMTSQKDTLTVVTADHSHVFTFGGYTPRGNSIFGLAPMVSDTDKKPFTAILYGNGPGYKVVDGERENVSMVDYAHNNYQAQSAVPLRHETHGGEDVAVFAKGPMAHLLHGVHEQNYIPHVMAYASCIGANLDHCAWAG

[2] = target: T2, AAVR (universal AAV entry factor) expressed on HEK 293T cells (UniProt Q8IZA0 1-1049); assay: binding/internalization: AAV incubated 2 or 3 h with AAVR transfected HEK 293T cells, washed, viral genomes quantified
T2 construct: whole, on cells; also called AAVR positive control
T2 sequence: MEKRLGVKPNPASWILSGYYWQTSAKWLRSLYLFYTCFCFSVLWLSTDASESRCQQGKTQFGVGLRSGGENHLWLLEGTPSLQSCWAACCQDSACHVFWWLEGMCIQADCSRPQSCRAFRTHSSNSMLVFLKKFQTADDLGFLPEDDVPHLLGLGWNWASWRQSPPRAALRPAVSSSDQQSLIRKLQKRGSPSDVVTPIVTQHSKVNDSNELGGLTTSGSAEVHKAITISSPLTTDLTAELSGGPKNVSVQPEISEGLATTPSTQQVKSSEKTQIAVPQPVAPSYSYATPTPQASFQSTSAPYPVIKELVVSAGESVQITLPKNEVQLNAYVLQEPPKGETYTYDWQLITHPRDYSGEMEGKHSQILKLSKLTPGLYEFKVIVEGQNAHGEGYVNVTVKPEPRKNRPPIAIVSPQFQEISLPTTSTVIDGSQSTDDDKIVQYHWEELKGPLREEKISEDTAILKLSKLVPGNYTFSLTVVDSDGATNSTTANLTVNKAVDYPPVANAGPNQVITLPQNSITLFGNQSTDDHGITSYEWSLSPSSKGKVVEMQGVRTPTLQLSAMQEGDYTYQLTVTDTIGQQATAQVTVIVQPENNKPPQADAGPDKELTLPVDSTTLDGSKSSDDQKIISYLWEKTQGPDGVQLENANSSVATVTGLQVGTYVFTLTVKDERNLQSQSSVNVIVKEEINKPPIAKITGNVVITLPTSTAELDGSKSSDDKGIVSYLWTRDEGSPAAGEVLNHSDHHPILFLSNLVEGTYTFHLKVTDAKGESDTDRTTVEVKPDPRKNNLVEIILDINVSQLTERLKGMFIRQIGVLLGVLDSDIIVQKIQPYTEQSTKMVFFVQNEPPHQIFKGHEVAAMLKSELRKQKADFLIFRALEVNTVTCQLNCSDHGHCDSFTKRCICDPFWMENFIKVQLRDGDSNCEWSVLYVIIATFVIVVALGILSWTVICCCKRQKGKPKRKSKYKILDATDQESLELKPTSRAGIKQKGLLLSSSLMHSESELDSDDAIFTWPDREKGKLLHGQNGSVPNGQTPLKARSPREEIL

[3] = target: T3, human ALPL expressed on cells (alkaline phosphatase tissue-nonspecific isozyme, NM_000478.4) (human, UniProt P05186 18-501); assay: binding/internalization: AAV incubated 2 or 3 h with ALPL transfected HEK 293T cells, washed, viral genomes quantified
T3 construct: also called ALPL receptor; human ALPL protein (NM_000478.6)
T3 sequence: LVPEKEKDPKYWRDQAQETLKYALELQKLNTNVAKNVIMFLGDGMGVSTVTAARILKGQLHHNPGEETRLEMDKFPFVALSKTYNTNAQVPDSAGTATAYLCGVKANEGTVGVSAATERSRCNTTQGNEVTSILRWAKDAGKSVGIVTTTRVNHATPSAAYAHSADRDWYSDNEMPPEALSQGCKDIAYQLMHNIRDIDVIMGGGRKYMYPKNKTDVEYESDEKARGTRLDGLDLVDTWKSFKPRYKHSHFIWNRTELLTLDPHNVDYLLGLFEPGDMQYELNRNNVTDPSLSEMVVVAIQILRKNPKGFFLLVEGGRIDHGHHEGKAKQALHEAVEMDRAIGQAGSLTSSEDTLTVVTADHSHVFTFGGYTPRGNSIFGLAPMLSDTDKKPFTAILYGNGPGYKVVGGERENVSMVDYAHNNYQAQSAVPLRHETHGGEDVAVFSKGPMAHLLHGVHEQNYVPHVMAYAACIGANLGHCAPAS

ALPL = target: T4, ALPL (Homo sapiens, UniProt P05186); assay: Transcytosis assay of AAV particles in MDCK cells engineered to overexpress ALPL; type: cell-based; set-up: expressed in transfected cells; host or cells: MDCK (Madin-Darby Canine Kidney) cells; settings: qPCR of bottom chamber
T4 sequence (P05186 18-501): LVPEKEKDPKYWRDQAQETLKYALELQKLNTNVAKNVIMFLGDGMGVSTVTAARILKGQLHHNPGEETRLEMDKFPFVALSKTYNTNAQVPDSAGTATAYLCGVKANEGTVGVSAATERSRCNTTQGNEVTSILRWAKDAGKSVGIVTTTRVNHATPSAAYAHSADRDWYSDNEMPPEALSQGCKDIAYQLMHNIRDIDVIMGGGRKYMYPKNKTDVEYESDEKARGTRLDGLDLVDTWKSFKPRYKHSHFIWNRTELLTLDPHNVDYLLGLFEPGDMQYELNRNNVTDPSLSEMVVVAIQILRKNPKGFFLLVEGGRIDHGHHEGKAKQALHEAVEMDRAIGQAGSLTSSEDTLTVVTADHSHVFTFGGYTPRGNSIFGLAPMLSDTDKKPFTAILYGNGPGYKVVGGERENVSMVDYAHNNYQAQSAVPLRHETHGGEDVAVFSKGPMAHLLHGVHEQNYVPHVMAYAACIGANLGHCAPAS

B1: TTM-002 capsid variant (AAV particle comprising the TTM-002 AAV9 capsid variant) (other)
chain 1: MAADGYLPDWLEDNLSEGIREWWALKPGAPQPKANQQHQDNARGLVLPGYKYLGPGNGLDKGEPVNAADAAALEHDKAYDQQLKAGDNPYLKYNHADAEFQERLKEDTSFGGNLGRAVFQAKKRLLEPLGLVEEAAKTAPGKKRPVEQSPQEPDSSAGIGKSGAQPAKKRLNFGQTGDTESVPDPQPIGEPPAAPSGVGSLTMASGGGAPVADNNEGADGVGSSSGNWHCDSQWLGDRVITTSTRTWALPTYNNHLYKQISNSTSGGSSNDNAYFGYSTPWGYFDFNRFHCHFSPRDWQRLINNNWGFRPKRLNFKLFNIQVKEVTDNNGVKTIANNLTSTVQVFTDSDYQLPYVLGSAHEGCLPPFPADVFMIPQYGYLTLNDGSQAVGRSSFYCLEYFPSQMLRTGNNFQFSYEFENVPFHSSYAHSQSLDRLMNPLIDQYLYYLSKTINGHDSPHKSGQNQQTLKFSVAGPSNMAVQGRNYIPGPSYRQQRVSTTVTQNNNSEFAWPGASSWALNGRNSLMNPGPAMASHKEGEDRFFPLSGSLIFGKQGTGRDNVDADKVMITNEEEIKTTNPVATESYGQVATNHQSAQAQAQTGWVQNQGILPGMVWQDRDVYLQGPIWAKIPHTDGNFHPSPLMGGFGMKHPPPQILIKNTPVPADPPTAFNKDKLNSFITQYSTGQVSVEIEWELQKENSKRWNPEIQYTSNYYKSNNVEFAVNTEGVYSEPRPIGTRYLTRNL
chain 2: TAPGKKRPVEQSPQEPDSSAGIGKSGAQPAKKRLNFGQTGDTESVPDPQPIGEPPAAPSGVGSLTMASGGGAPVADNNEGADGVGSSSGNWHCDSQWLGDRVITTSTRTWALPTYNNHLYKQISNSTSGGSSNDNAYFGYSTPWGYFDFNRFHCHFSPRDWQRLINNNWGFRPKRLNFKLFNIQVKEVTDNNGVKTIANNLTSTVQVFTDSDYQLPYVLGSAHEGCLPPFPADVFMIPQYGYLTLNDGSQAVGRSSFYCLEYFPSQMLRTGNNFQFSYEFENVPFHSSYAHSQSLDRLMNPLIDQYLYYLSKTINGHDSPHKSGQNQQTLKFSVAGPSNMAVQGRNYIPGPSYRQQRVSTTVTQNNNSEFAWPGASSWALNGRNSLMNPGPAMASHKEGEDRFFPLSGSLIFGKQGTGRDNVDADKVMITNEEEIKTTNPVATESYGQVATNHQSAQAQAQTGWVQNQGILPGMVWQDRDVYLQGPIWAKIPHTDGNFHPSPLMGGFGMKHPPPQILIKNTPVPADPPTAFNKDKLNSFITQYSTGQVSVEIEWELQKENSKRWNPEIQYTSNYYKSNNVEFAVNTEGVYSEPRPIGTRYLTRNL
chain 3: MASGGGAPVADNNEGADGVGSSSGNWHCDSQWLGDRVITTSTRTWALPTYNNHLYKQISNSTSGGSSNDNAYFGYSTPWGYFDFNRFHCHFSPRDWQRLINNNWGFRPKRLNFKLFNIQVKEVTDNNGVKTIANNLTSTVQVFTDSDYQLPYVLGSAHEGCLPPFPADVFMIPQYGYLTLNDGSQAVGRSSFYCLEYFPSQMLRTGNNFQFSYEFENVPFHSSYAHSQSLDRLMNPLIDQYLYYLSKTINGHDSPHKSGQNQQTLKFSVAGPSNMAVQGRNYIPGPSYRQQRVSTTVTQNNNSEFAWPGASSWALNGRNSLMNPGPAMASHKEGEDRFFPLSGSLIFGKQGTGRDNVDADKVMITNEEEIKTTNPVATESYGQVATNHQSAQAQAQTGWVQNQGILPGMVWQDRDVYLQGPIWAKIPHTDGNFHPSPLMGGFGMKHPPPQILIKNTPVPADPPTAFNKDKLNSFITQYSTGQVSVEIEWELQKENSKRWNPEIQYTSNYYKSNNVEFAVNTEGVYSEPRPIGTRYLTRNL
fold change in luciferase activity relative to the pCMV6 control cells (cells transfected with murine ALPL protein) [1]: 24 fold | fold change in viral gene expression (2^-ΔΔCT) relative to pCMV6 transfected cells [2]: 3.2 fold | fold change in viral gene expression (2^-ΔΔCT) relative to pCMV6 transfected cells [3]: 5.92 fold

B2: TTM-002: AAV9 capsid variant comprising HDSPHK (SEQ ID NO: 2) in loop IV (protein)
chain 1: MAADGYLPDWLEDNLSEGIREWWALKPGAPQPKANQQHQDNARGLVLPGYKYLGPGNGLDKGEPVNAADAAALEHDKAYDQQLKAGDNPYLKYNHADAEFQERLKEDTSFGGNLGRAVFQAKKRLLEPLGLVEEAAKTAPGKKRPVEQSPQEPDSSAGIGKSGAQPAKKRLNFGQTGDTESVPDPQPIGEPPAAPSGVGSLTMASGGGAPVADNNEGADGVGSSSGNWHCDSQWLGDRVITTSTRTWALPTYNNHLYKQISNSTSGGSSNDNAYFGYSTPWGYFDFNRFHCHFSPRDWQRLINNNWGFRPKRLNFKLFNIQVKEVTDNNGVKTIANNLTSTVQVFTDSDYQLPYVLGSAHEGCLPPFPADVFMIPQYGYLTLNDGSQAVGRSSFYCLEYFPSQMLRTGNNFQFSYEFENVPFHSSYAHSQSLDRLMNPLIDQYLYYLSKTINGHDSPHKSGQNQQTLKFSVAGPSNMAVQGRNYIPGPSYRQQRVSTTVTQNNNSEFAWPGASSWALNGRNSLMNPGPAMASHKEGEDRFFPLSGSLIFGKQGTGRDNVDADKVMITNEEEIKTTNPVATESYGQVATNHQSAQAQAQTGWVQNQGILPGMVWQDRDVYLQGPIWAKIPHTDGNFHPSPLMGGFGMKHPPPQILIKNTPVPADPPTAFNKDKLNSFITQYSTGQVSVEIEWELQKENSKRWNPEIQYTSNYYKSNNVEFAVNTEGVYSEPRPIGTRYLTRNL
chain 2: GHDSPHKSGQNQQT
transcytosis in MDCK cells that did not express ALPL (ALPL): No transcytosis was observed
